From paper PMC3268725
Several values for one entry are separate records, joined by “and”; a condition that tells them apart may be missing. Identical values can stand only once.

B1: His-tagged YidC, purified (natural protein)
chain: MDSQRNLLVIALLFVSFMIWQAWEQDKNPQPQAQQTTQTTTTAAGSAADQGVPASGQGKLISVKTDVLDLTINTRGGDVEQALLPAYPKELNSTQPFQLLETSPQFIYQAQSGLTGRDGPDNPANGPRPLYNVEKDAYVLAEGQNELQVPMTYTDAAGNTFTKTFVLKRGDYAVNVNYNVQNAGEKPLEISSFGQLKQSITLPPHLDTGSSNFALHTFRGAAYSTPDEKYEKYKFDTIADNENLNISSKGGWVAMLQQYFATAWIPHNDGTNNFYTANLGNGIAAIGYKSQPVLVQPGQTGAMNSTLWVGPEIQDKMAAVAPHLDLTVDYGWLWFISQPLFKLLKWIHSFVGNWGFSIIIITFIVRGIMYPLTKAQYTSMAKMRMLQPKIQAMRERLGDDKQRISQEMMALYKAEKVNPLGGCFPLLIQMPIFLALYYMLMGSVELRQAPFALWIHDLSAQDPYYILPILMGVTMFFIQKMSPTTVTDPMQQKIMTFMPVIFTVFFLWFPSGLVLYYIVSNLVTIIQQQLIYRGLEKRGLHSREKKKS

Target: E. coli 70S ribosomes (nontranslating, salt-washed) (E. coli)
Test: co-sedimentation

Molecule | Kd [nM] | fold lower affinity than SecY for ribosomes
SecYHisEG complex, purified, in detergent (from UniProt P0AGA2;P0AG96;P0AG99) | 150 | –
B1 | – | 5 times lower and 10 times lower
